In patent US20110052591A1:

Target: TSH receptor on mouse alveolar macrophage AM cells (AMJ2-C8) (mouse) (UniProt P47750)
Assay: cell-based or functional assay

Sequence of UniProt P47750 (P47750 22-764): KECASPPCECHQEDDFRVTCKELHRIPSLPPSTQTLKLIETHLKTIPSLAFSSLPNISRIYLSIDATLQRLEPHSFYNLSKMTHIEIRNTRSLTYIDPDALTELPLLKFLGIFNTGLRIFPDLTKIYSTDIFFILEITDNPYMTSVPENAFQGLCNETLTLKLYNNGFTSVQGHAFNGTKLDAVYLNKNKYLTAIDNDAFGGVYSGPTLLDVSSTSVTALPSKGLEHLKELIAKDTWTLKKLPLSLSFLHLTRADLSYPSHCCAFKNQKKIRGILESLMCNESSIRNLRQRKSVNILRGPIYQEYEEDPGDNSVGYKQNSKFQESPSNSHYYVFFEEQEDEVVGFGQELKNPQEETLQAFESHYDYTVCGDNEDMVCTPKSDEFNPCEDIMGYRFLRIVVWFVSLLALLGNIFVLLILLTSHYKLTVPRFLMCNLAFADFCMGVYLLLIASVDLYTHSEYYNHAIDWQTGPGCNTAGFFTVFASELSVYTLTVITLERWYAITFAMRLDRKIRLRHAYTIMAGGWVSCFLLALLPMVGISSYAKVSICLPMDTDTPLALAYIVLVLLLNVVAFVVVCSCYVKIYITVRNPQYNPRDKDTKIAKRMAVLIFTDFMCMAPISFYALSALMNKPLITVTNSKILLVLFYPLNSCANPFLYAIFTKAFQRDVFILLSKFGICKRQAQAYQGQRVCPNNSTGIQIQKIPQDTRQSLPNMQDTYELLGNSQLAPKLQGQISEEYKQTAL

| cAMP response of AM cells; concentration of peak activity [nM] | Substance |
| --- | --- |
| 0.1 | recombinant mouse native TSHβ (from UniProt P12656 21-138) (ligand) |
| 1000 | recombinant mouse novel TSHβ splice variant (from UniProt P12656 55-138) (ligand) |
